Publication PMC11594316, “Novel DNA Aptamers to Dickkopf-1 Protein and Their Application in Colorimetric Sandwich Assays for Target Detection in Patients with Axial Spondyloarthritis”

Target: T1, Dickkopf-1 (DKK-1) (human, UniProt O94907 32-266)
T1 sequence: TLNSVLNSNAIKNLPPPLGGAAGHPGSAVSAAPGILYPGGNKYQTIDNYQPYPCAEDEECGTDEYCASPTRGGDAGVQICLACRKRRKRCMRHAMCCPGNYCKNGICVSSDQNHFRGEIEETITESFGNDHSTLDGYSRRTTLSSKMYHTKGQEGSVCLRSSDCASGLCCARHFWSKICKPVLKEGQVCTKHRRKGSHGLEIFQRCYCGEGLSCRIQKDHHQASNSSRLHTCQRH
Test: ELASA; ELASA: DKK-1 coated at 2 ug/mL, BSA-blocked; aptamer 3.12-100 nM in PBSMT (1x PBS pH 7.4, 5 mM MgCl2, 0.05% Tween 20), 1 h, 25 C
Settings: protein: commercial, tags: N-terminal His-tag (stated for the selection protein), label: biotin

Binder: CACGACTCGGAGTGCGTACAGCAAGCACATATGTGCTCTCCCAGAGCGTG (ssDNA, 3'-amino linker (C6, Spacer 18)) [DK4_50t]
- Kd (three-way junction): 6.1 ± 2 nM

Binder: CGGTGTACCCGCATAGACCCTGCGTCCGCTGTATGTACACGTAAGCCG (ssDNA, 3'-amino linker (C6, Spacer 18)) [DK2_48t]
- Kd (three-way junction): 3.3 ± 2 nM

B1: DK2_58t (ssDNA)
DNA: CGACTCGGTGTACCCGCATAGACCCTGCGTCCGCTGTATGTACACGTAAGCCCTGTCG
modifications: 3'-amino linker (C6, Spacer 18)
- Kd (three-way junction): 3.6 ± 2 nM

Binder: CGGCATGTATCTGGCTGCTGAGTGTACGATTCCAGTATATATGAGCCG (ssDNA, 3'-amino linker (C6, Spacer 18)) [DK1_48t]
- Kd (stem-loop): 10 ± 6 nM

Binder: CCTCGGAGTGCGTACAGCAAGCACATATGTGCTCTCCCAGG (ssDNA, 3'-amino linker (C6, Spacer 18)) [DK4_41t]
- Kd (three-way junction): 5.6 ± 3 nM
